In paper PMC4424335 (The Journal of Biological Chemistry, 2015):
One block for each molecule: values may come before it. Peptide text beside a SMILES is read from it. * marks the point of attachment. Propyl(3-UDP) = O=c1ccn([C@@H]2O[C@H](COP(=O)(O)OP(=O)(O)OCCC*)[C@@H](O)[C@H]2O)c(=O)[nH]1

Columns and labels:
[1] = biological target: T1, TaOGT (Trichoplax O-GlcNAc transferase) (Trichoplax adhaerens, UniProt A0A0D5X2K0); assay: fluorescence UDP-detection OGT assay, […] UDP-GlcNAc; assay type: biochemical
T1 construct: TaOGT, start identified by RACE, wild type, GST tag cleaved

[2] = biological target: TaOGA53 (Trichoplax O-GlcNAcase) (Trichoplax adhaerens, UniProt A0A0D5X1V2)
[3] = substrate: CC(=O)N[C@H]1[C@@H](OP(=O)(O)OP(=O)(O)OC[C@H]2O[C@@H](n3ccc(=O)[nH]c3=O)[C@H](O)[C@@H]2O)O[C@H](CO)[C@@H](O)[C@@H]1O; assay: steady-state kinetics (Km), fluorescence UDP-detection assay; assay type: biochemical, Trichoplax adhaerens
Method: steady-state kinetics (Km), fluorescence UDP-detection assay on TaOGT (Trichoplax O-GlcNAc transferase) | The Km for UDP-GlcNAc was measured in the presence of excess peptide substrate

[4] = substrate: CC(=O)N[C@H]1[C@H](Oc2ccc3c(C)cc(=O)oc3c2)O[C@H](CO)[C@@H](O)[C@@H]1O; assay: purified protein

- IC50 [1]: 27 µM
Molecule: CC(=O)N[C@H](C(=O)N[C@H](C(=O)N1CCC[C@H]1C(=O)N[C@H](C(=O)N[C@@H](COCCCOP(=O)(O)OP(=O)(O)OC[C@H]1O[C@@H](n2ccc(=O)[nH]c2=O)[C@H](O)[C@@H]1O)C(=O)N[C@H](C(=O)N[C@@H](C)C(N)=O)[C@@H](C)O)C(C)C)[C@@H](C)O)C(C)C [Goblin 1] (Ac-VTPVS(Propyl(3-UDP))TA-NH2)

Molecule: CCNC1=N[C@@H]2[C@@H](O)[C@H](O)[C@@H](CO)O[C@@H]2S1 [Thiamet G]
- IC50 [2]: c, IC50 of Thiamet G and GlcNAcstatin C for TaOGA53.

B1: TaOGT (Trichoplax O-GlcNAc transferase) (Trichoplax adhaerens) (protein)
chain: MVDQTNGIAEIAHREYQQGNYERAEHLAMEWWRHEQDNVGVLLLLSSIHFQTRKLDKSAHFCNMAIKSNPALSEAYSNLGNVFKERNQLKEALENYRYALRLRPDFIDGYINLASALVAAQDLEGAVKAYATALQYNPNLYCVRNDLGNLLKALGRLEEAKACYLKAIETQPNFAVAWSNLGCVFNSQGEIWLAIHHFEKAVTLDNGFLDAYINLGNVLKEARIFDRASTAYLRALNLSPNNPTVLGNLACVYYEQGLMDLAVDTYKRAIELQPNFPDAYCNLANALKELGKVTEAEECYNTALSLCPTHADSLNNLANIKREKGQIGEASKLYRKALEIFPEFAAAHSNLASVLQQQGKLQEALAHYKEAIRINPSFADAYSNMGNTLKEMQDVQGAIQCYTRAIQINPNFADAHSNLASIHKDSGSIPEAIANYRTALKLKPDFPDAFCNLAHCYQIICDWADYELRMKRLVSIVQDQLEKGRLPSVHPHHTMLYPLDGHTRKAISNRHGNLCLDRTATIHKPPYKFTPNIILPNGKLKIGYVSSDFGNHPTSHLMQSIPKLHDRSRVEVYCYSLTADDGTSFRKEISRGSDHFVDLSQVQCHGDAADRINADGIHILLNMNGYTKGARNEIFALRPAPIQMMWLGYPGTSGAAFMDYIITDKITSPMEYADHYSEKLAFLPNSFFIGDHRHMFAHLSVRATDNGRDRVINLSEGSAPDLDMKDIIEAQLREALSKIDNTSSHINTSTNLISNGTLGSNAVIPNGGPIINGNGDSVPNGPGVNVPSGMVLTTRAQYGLPSKAIIYCNFNQLYKIDPKILETWVRILKRVPNSILWLLRFPAAGEAMLKNTILKMGLPADRVVFTNVAPKEEHVRRGQLADICLDTPMCNGHTTGMDVLWAGVPMITMPKETLASRVASSQLTSLGVSELIAKDLTEYEDVAVKYGSDITRLRKLQDKIWQLRHKSTLFNTKTYCQNLEELYVKVWDRYSQGLEPDHIIY
notes: TaOGT, start identified by RACE, wild type, GST tag cleaved
- Km [3]: 13 ± 2 µM

B2: TaOGA53 (Trichoplax O-GlcNAcase) (Trichoplax adhaerens) (protein)
chain: MNHNFICGVIEGFYGLPWSFTDRLDLFERLKKWGLNTYIYGPKDDYKHRSAWRDLYTETEADLFRALIKNAIVNDVIFVYAISPGNDICYSNASDIAALKDKLDQVRSFGCEAFAVFFDDIYCTMSKKDKGNFASFADAHVYIANLIYEHLNRPAVFMFCPTEYCATRAVPSVENSPYLTVIGDKLHPDVKVLWTGPDVISPFISVDSILALQEILKRKPIIWDNIHANDYDHSRIFLGPYQDRPIELAKVLSGVITNPNCEYRMNYVPIRTFSLWCQSQDKDDVQYSAESALTCAVEEWVKEFSVPSQLNIDQENIAVTMKDGIAKKDMTVTTEHLLLLIDIFYLPHKYGRHSIHLINMARWLQVNSNMITSTKETDKATSPSVKMWFQVFNEFNSLCQGILLLYDYLTMCPNQAISRELNSYIINLKKIFHILSLHINSLGTEATKHSSDATDTVDSSDAVVYGGILGEVVKIIKEGSDGDLKSSQQQVTACAIEVSLKNSDANMGADIPTNATVIG
- Km [4]: 78 ± 5 µM

B3: TaOGA54 (Trichoplax O-GlcNAcase) (Trichoplax adhaerens) (protein)
chain: MTSDKFLSGVVEGFYGKPWSFEQRKTLFSNMAKWGLNTYMYGPKDDEKHRAAWKQAYSKREGDSLRALIRAAEESGILFIYAISPGVDITYSSNRDMKFLKDKLDQIRNFGCNSFAIFFDDIDTVMCLQDQEEFESFAAAQVEVTNEIYKYLGMPANFLFCPTEYCAARADPNVKESKYLVTVGTGLHSDIHIMWTGPKVVSNKISVESILELQTVLRRKPVIWDNIHANDYEQGRLNLGPYDCRPAELMESLNGIFTNPNCEFELNYVPIRTFSLWCQSKRTRFNYDVEKALEQSIREWTEEFCIPRLPDGYLLEADTSDTNVNEYMDDEMQSDSRPISPANSMETDKDELTVKDIRLLVELFYLPQKHGKTANDLLAQAKWLKSNFRIAALSRKPNDTSEGSNLDEHNTDYIAAKEWDKRFSKFRSICQIIHQFGDRLMTCRNRVLLYEVYNYVADLCGILYHLISRIHSLANPEKLEKRSDSEQSSFRYGGFVGDIHRLIVSTDEYEESTLKNSDAYVIRPFMPSDEETLYDLCLKSCIENSNGDEIYKREPRIIGDRDLGAYIYLHPEYIYVLEDDRDKICGYLCGALDSKQFYERYESEWLTQIRDRHPQPENDIASWTPEEIVANSFYNFTPPTDVSVLYLSHLEARFDSSVPEKVIKRIIRFILEQLKAKGSYGASMLIDSWRTNLRRIFTSMGFVDLQEYSWMSEQKCMIAIKLM
- Km [4]: 2000 ± 100 µM
